Data as given in patent US5691180.

Legend:
[1] = biological target: iminobiotinylated bovine fetuin (bovine) (UniProt P12763)
[2] = biological target: IgG-Sepharose (Pharmacia); assay: IgG-Sepharose batch adsorption of conditioned medium, GalNAc-transferase activity assayed on the beads (Table 1B, Sepharose-IgG: applied 4914, flowthrough 214, bound 1853 units)

| Substance | Released activity (units) of GalNAc-transferase [1] | percent of applied activity bound [2] |
| --- | --- | --- |
| protein A-GalNAc-transferase fusion protein (pPROTA-CTc) (from UniProt P38507) (enzyme) | 9830 units | 37% |
| UDP-GalNAc: NeuAcα2,3Galβ-R β1,4-N-acetyl-galactosamine-transferase encoded by pCDM8-CT (full-length, wild type enzyme) | 8390 units | – |
